Measurements published in IntAct's records for PubMed 31571211.

B1: Phospholipid-transporting ATPase IG (Homo sapiens), Q8NB49 (parent)
chain: MQMVPSLPPASECAGEEKRVGTRTVFVGNHPVSETEAYIAQRFCDNRIVSSKYTLWNFLPKNLFEQFRRIANFYFLIIFLVQVTVDTPTSPVTSGLPLFFVITVTAIKQGYEDCLRHRADNEVNKSTVYIIENAKRVRKESEKIKVGDVVEVQADETFPCDLILLSSCTTDGTCYVTTASLDGESNCKTHYAVRDTIALCTAESIDTLRAAIECEQPQPDLYKFVGRINIYSNSLEAVARSLGPENLLLKGATLKNTEKIYGVAVYTGMETKMALNYQGKSQKRSAVEKSINAFLIVYLFILLTKAAVCTTLKYVWQSTPYNDEPWYNQKTQKERETLKVLKMFTDFLSFMVLFNFIIPVSMYVTVEMQKFLGSFFISWDKDFYDEEINEGALVNTSDLNEELGQVDYVFTDKTGTLTENSMEFIECCIDGHKYKGVTQEVDGLSQTDGTLTYFDKVDKNREELFLRALCLCHTVEIKTNDAVDGATESAELTYISSSPDEIALVKGAKRYGFTFLGNRNGYMRVENQRKEIEEYELLHTLNFDAVRRRMSVIVKTQEGDILLFCKGADSAVFPRVQNHEIELTKVHVERNAMDGYRTLCVAFKEIAPDDYERINRQLIEAKMALQDREEKMEKVFDDIETNMNLIGATAVEDKLQDQAAETIEALHAAGLKVWVLTGDKMETAKSTCYACRLFQTNTELLELTTKTIEESERKEDRLHELLIEYRKKLLHEFPKSTRSFKKAWTEHQEYGLIIDGSTLSLILNSSQDSSSNNYKSIFLQICMKCTAVLCCRMAPLQKAQIVRMVKNLKGSPITLSIGDGANDVSMILESHVGIGIKGKEGRQAARNSDYSVPKFKHLKKLLLAHGHLYYVRIAHLVQYFFYKNLCFILPQFLYQFFCGFSQQPLYDAAYLTMYNICFTSLPILAYSLLEQHINIDTLTSDPRLYMKISGNAMLQLGPFLYWTFLAAFEGTVFFFGTYFLFQTASLEENGKVYGNWTFGTIVFTVLVFTVTLKLALDTRFWTWINHFVIWGSLAFYVFFSFFWGGIIWPFLKQQRMYFVFAQMLSSVSTWLAIILLIFISLFPEILLIVLKNVRRRSARRNLSCRRASDSLSARPSVRPLLLRTFSDESNVL
partner: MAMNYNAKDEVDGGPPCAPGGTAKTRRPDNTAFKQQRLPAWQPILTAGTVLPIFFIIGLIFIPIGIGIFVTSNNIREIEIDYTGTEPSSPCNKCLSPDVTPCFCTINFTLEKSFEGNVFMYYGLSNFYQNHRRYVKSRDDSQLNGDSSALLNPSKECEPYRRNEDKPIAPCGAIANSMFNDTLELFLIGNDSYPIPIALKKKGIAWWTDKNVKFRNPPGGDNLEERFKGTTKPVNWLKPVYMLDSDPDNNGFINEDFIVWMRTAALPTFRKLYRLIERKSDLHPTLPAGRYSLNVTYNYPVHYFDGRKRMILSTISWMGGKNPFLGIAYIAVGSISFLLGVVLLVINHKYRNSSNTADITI
B2: Phospholipid-transporting ATPase VA (Homo sapiens), O60312 (parent)
chain: MEREPAGTEEPGPPGRRRRREGRTRTVRSNLLPPPGAEDPAAGAAKGERRRRRGCAQHLADNRLKTTKYTLLSFLPKNLFEQFHRPANVYFVFIALLNFVPAVNAFQPGLALAPVLFILAITAFRDLWEDYSRHRSDHKINHLGCLVFSREEKKYVNRFWKEIHVGDFVRLRCNEIFPADILLLSSSDPDGLCHIETANLDGETNLKRRQVVRGFSELVSEFNPLTFTSVIECEKPNNDLSRFRGCIIHDNGKKAGLYKENLLLRGCTLRNTDAVVGIVIYAGHETKALLNNSGPRYKRSKLERQMNCDVLWCVLLLVCMSLFSAVGHGLWIWRYQEKKSLFYVPKSDGSSLSPVTAAVYSFLTMIIVLQVLIPISLYVSIEIVKACQVYFINQDMQLYDEETDSQLQCRALNITEDLGQIQYIFSDKTGTLTENKMVFRRCTVSGVEYSHDANAQRLARYQEADSEEEEVVPRGGSVSQRGSIGSHQSVRVVHRTQSTKSHRRTGSRAEAKRASMLSKHTAFSSPMEKDITPDPKLLEKVSECDKSLAVARHQEHLLAHLSPELSDVFDFFIALTICNTVVVTSPDQPRTKVRVRFELKSPVKTIEDFLRRFTPSCLTSGCSSIGSLAANKSSHKLGSSFPSTPSSDGMLLRLEERLGQPTSAIASNGYSSQADNWASELAQEQESERELRYEAESPDEAALVYAARAYNCVLVERLHDQVSVELPHLGRLTFELLHTLGFDSVRKRMSVVIRHPLTDEINVYTKGADSVVMDLLQPCSSVDARGRHQKKIRSKTQNYLNVYAAEGLRTLCIAKRVLSKEEYACWLQSHLEAESSLENSEELLFQSAIRLETNLHLLGATGIEDRLQDGVPETISKLRQAGLQIWVLTGDKQETAVNIAYACKLLDHDEEVITLNATSQEACAALLDQCLCYVQSRGLQRAPEKTKGKVSMRFSSLCPPSTSTASGRRPSLVIDGRSLAYALEKNLEDKFLFLAKQCRSVLCCRSTPLQKSMVVKLVRSKLKAMTLAIGDGANDVSMIQVADVGVGISGQEGMQAVMASDFAVPKFRYLERLLILHGHWCYSRLANMVLYFFYKNTMFVGLLFWFQFFCGFSASTMIDQWYLIFFNLLFSSLPPLVTGVLDRDVPANVLLTNPQLYKSGQNMEEYRPRTFWFNMADAAFQSLVCFSIPYLAYYDSNVDLFTWGTPIVTIALLTFLLHLGIETKTWTWLNWITCGFSVLLFFTVALIYNASCATCYPPSNPYWTMQALLGDPVFYLTCLMTPVAALLPRLFFRSLQGRVFPTQLQLARQLTRKSPRRCSAPKETFAQGRLPKDSGTEHSSGRTVKTSVPLSQPSWHTQQPVCSLEASGEPSTVDMSMPVREHTLLEGLSAPAPMSSAPGEAVLRSPGGCPEESKVRAASTGRVTPLSSLFSLPTFSLLNWISSWSLVSRLGSVLQFSRTEQLADGQAGRGLPVQPHSGRSGLQGPDHRLLIGASSRRSQ
partner: B1 partner
B3: Phospholipid-transporting ATPase IF (Homo sapiens), Q9Y2G3 (parent)
chain: MWRWIRQQLGFDPPHQSDTRTIYVANRFPQNGLYTPQKFIDNRIISSKYTVWNFVPKNLFEQFRRVANFYFLIIFLVQLMIDTPTSPVTSGLPLFFVITVTAIKQGYEDWLRHNSDNEVNGAPVYVVRSGGLVKTRSKNIRVGDIVRIAKDEIFPADLVLLSSDRLDGSCHVTTASLDGETNLKTHVAVPETALLQTVANLDTLVAVIECQQPEADLYRFMGRMIITQQMEEIVRPLGPESLLLRGARLKNTKEIFGVAVYTGMETKMALNYKSKSQKRSAVEKSMNTFLIIYLVILISEAVISTILKYTWQAEEKWDEPWYNQKTEHQRNSSKILRFISDFLAFLVLYNFIIPISLYVTVEMQKFLGSFFIGWDLDLYHEESDQKAQVNTSDLNEELGQVEYVFTDKTGTLTENEMQFRECSINGMKYQEINGRLVPEGPTPDSSEGNLSYLSSLSHLNNLSHLTTSSSFRTSPENETELIKEHDLFFKAVSLCHTVQISNVQTDCTGDGPWQSNLAPSQLEYYASSPDEKALVEAAARIGIVFIGNSEETMEVKTLGKLERYKLLHILEFDSDRRRMSVIVQAPSGEKLLFAKGAESSILPKCIGGEIEKTRIHVDEFALKGLRTLCIAYRKFTSKEYEEIDKRIFEARTALQQREEKLAAVFQFIEKDLILLGATAVEDRLQDKVRETIEALRMAGIKVWVLTGDKHETAVSVSLSCGHFHRTMNILELINQKSDSECAEQLRQLARRITEDHVIQHGLVVDGTSLSLALREHEKLFMEVCRNCSAVLCCRMAPLQKAKVIRLIKISPEKPITLAVGDGANDVSMIQEAHVGIGIMGKEGRQAARNSDYAIARFKFLSKLLFVHGHFYYIRIATLVQYFFYKNVCFITPQFLYQFYCLFSQQTLYDSVYLTLYNICFTSLPILIYSLLEQHVDPHVLQNKPTLYRDISKNRLLSIKTFLYWTILGFSHAFIFFFGSYLLIGKDTSLLGNGQMFGNWTFGTLVFTVMVITVTVKMALETHFWTWINHLVTWGSIIFYFVFSLFYGGILWPFLGSQNMYFVFIQLLSSGSAWFAIILMVVTCLFLDIIKKVFDRHLHPTSTEKAQLTETNAGIKCLDSMCCFPEGEAACASVGRMLERVIGRCSPTHISRSWSASDPFYTNDRSILTLSTMDSSTC
partner: B1 partner
B4: Phospholipid-transporting ATPase IH (Homo sapiens), P98196 (parent)
chain: MDCSLVRTLVHRYCAGEENWVDSRTIYVGHREPPPGAEAYIPQRYPDNRIVSSKYTFWNFIPKNLFEQFRRVANFYFLIIFLVQLIIDTPTSPVTSGLPLFFVITVTAIKQGYEDWLRHKADNAMNQCPVHFIQHGKLVRKQSRKLRVGDIVMVKEDETFPCDLIFLSSNRGDGTCHVTTASLDGESSHKTHYAVQDTKGFHTEEDIGGLHATIECEQPQPDLYKFVGRINVYSDLNDPVVRPLGSENLLLRGATLKNTEKIFGVAIYTGMETKMALNYQSKSQKRSAVEKSMNAFLIVYLCILISKALINTVLKYMWQSEPFRDEPWYNQKTESERQRNLFLKAFTDFLAFMVLFNYIIPVSMYVTVEMQKFLGSYFITWDEDMFDEETGEGPLVNTSDLNEELGQVEYIFTDKTGTLTENNMEFKECCIEGHVYVPHVICNGQVLPESSGIDMIDSSPSVNGREREELFFRALCLCHTVQVKDDDSVDGPRKSPDGGKSCVYISSSPDEVALVEGVQRLGFTYLRLKDNYMEILNRENHIERFELLEILSFDSVRRRMSVIVKSATGEIYLFCKGADSSIFPRVIEGKVDQIRARVERNAVEGLRTLCVAYKRLIQEEYEGICKLLQAAKVALQDREKKLAEAYEQIEKDLTLLGATAVEDRLQEKAADTIEALQKAGIKVWVLTGDKMETAAATCYACKLFRRNTQLLELTTKRIEEQSLHDVLFELSKTVLRHSGSLTRDNLSGLSADMQDYGLIIDGAALSLIMKPREDGSSGNYRELFLEICRSCSAVLCCRMAPLQKAQIVKLIKFSKEHPITLAIGDGANDVSMILEAHVGIGVIGKEGRQAARNSDYAIPKFKHLKKMLLVHGHFYYIRISELVQYFFYKNVCFIFPQFLYQFFCGFSQQTLYDTAYLTLYNISFTSLPILLYSLMEQHVGIDVLKRDPTLYRDVAKNALLRWRVFIYWTLLGLFDALVFFFGAYFVFENTTVTSNGQIFGNWTFGTLVFTVMVFTVTLKLALDTHYWTWINHFVIWGSLLFYVVFSLLWGGVIWPFLNYQRMYYVFIQMLSSGPAWLAIVLLVTISLLPDVLKKVLCRQLWPTATERVQTKSQCLSVEQSTIFMLSQTSSSLSF
partner: B1 partner

Variants of: B1
Details: with cc50a_human TMEM30A

Variant | effect of a mutation on the interaction
G183L | disrupting interaction strength
D412N | disrupting interaction strength
E184Q | increasing interaction strength

Variants of: B2
Details: with cc50a_human TMEM30A

Variant | effect of a mutation on the interaction
G202L | disrupting interaction strength
D427N | disrupting interaction strength
E203Q | increasing interaction strength

Variants of: B3
Details: with cc50a_human TMEM30A

Variant | effect of a mutation on the interaction
D407N | disrupting interaction strength
E180Q | increasing interaction strength
G179L | decreasing interaction strength

Variants of: B4
Details: with cc50a_human TMEM30A

Variant | effect of a mutation on the interaction
G185L | disrupting interaction strength
E186Q | increasing interaction strength
D414N | disrupting interaction strength
